From article PMC9482650, “Quantitative fragmentomics allow affinity mapping of interactomes” (Nature Communications, 2022)

Legend:
Assay in all cases: holdup assay
Set-up in all cases: key: below the threshold = too weak to quantify, mostly under pKd 3.1 to 4
[1] = molecular target: AHNAK1, Q09666
[2] = molecular target: T1, APBA1_1, Q02410
T1 sequence (Q02410 651-752, limits assumed, looked up): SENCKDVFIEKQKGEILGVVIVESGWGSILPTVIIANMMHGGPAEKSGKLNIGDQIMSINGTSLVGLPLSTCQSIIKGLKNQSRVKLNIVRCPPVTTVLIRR

[3] = molecular target: T2, APBA1_2, Q02410
T2 sequence (Q02410 742-832, limits assumed, looked up): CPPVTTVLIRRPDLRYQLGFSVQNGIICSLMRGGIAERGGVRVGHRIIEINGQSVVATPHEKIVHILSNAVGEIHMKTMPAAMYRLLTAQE

[4] = molecular target: T3, DLG3_1, Q92796
T3 sequence (Q92796 125-227, limits assumed, looked up): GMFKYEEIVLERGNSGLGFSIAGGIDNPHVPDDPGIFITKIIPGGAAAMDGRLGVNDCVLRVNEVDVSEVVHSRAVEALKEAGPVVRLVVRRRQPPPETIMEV

[5] = molecular target: T4, DLG3_3, Q92796
T4 sequence (Q92796 374-475, limits assumed, looked up): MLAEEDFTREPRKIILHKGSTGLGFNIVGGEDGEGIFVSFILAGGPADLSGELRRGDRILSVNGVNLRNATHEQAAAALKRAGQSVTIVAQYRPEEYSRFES

[6] = molecular target: DLG4_1, P78352
Chain of DLG4_1, P78352 (P78352 62-152): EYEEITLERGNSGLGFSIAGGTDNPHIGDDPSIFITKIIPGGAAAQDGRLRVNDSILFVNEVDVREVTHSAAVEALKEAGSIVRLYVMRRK

[7] = molecular target: FRMPD2_3, Q68DX3
Chain of FRMPD2_3, Q68DX3 (Q68DX3 1073-1166): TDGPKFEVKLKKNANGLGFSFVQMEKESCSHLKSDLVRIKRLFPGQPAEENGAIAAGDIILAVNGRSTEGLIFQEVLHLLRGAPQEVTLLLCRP

[8] = molecular target: GRID2IP_2, A4D2P6
Chain of GRID2IP_2, A4D2P6 (A4D2P6 272-370): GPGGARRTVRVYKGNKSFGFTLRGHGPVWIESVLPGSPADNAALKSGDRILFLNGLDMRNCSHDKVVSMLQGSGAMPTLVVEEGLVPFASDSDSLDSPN

[9] = molecular target: T5, GRIP1_3, Q9Y3R0
T5 sequence (Q9Y3R0 247-346, limits assumed, looked up): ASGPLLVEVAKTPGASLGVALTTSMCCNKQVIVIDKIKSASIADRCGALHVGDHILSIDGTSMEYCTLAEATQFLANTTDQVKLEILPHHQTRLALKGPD

[10] = molecular target: T6, GRIP1_5, Q9Y3R0
T6 sequence (Q9Y3R0 568-668, limits assumed, looked up): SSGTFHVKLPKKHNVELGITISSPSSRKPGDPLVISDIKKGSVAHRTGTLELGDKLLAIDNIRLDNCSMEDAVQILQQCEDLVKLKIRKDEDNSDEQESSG

[11] = molecular target: GRIP2_4, Q9C0E4
Chain of GRIP2_4, Q9C0E4 (Q9C0E4 446-548): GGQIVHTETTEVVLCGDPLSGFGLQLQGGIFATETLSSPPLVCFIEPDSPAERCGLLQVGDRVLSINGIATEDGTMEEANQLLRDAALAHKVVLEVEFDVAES

[12] = molecular target: GRIP2_5, Q9C0E4
Chain of GRIP2_5, Q9C0E4 (Q9C0E4 544-642): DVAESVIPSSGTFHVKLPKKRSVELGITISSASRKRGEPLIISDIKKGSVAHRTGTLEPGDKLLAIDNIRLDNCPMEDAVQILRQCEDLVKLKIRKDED

[13] = molecular target: HTRA1, Q92743
Chain of HTRA1, Q92743 (Q92743 360-477): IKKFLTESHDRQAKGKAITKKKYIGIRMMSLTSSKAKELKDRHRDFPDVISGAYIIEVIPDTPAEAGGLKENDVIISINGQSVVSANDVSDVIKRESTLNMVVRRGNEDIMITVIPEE

[14] = molecular target: IL16_3, Q14005
Chain of IL16_3, Q14005 (Q14005 1107-1207): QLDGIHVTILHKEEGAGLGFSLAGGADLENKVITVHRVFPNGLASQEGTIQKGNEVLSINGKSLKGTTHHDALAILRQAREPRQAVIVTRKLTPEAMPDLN

[15] = molecular target: Inadl_8, Q8NI35
Chain of Inadl_8, Q8NI35 (Q8NI35 1425-1530): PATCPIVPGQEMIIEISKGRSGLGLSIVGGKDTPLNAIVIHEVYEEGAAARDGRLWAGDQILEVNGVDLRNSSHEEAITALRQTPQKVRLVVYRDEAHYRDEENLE

[16] = molecular target: T7, LNX2_2, Q8N448
T7 sequence (Q8N448 334-432, limits assumed, looked up): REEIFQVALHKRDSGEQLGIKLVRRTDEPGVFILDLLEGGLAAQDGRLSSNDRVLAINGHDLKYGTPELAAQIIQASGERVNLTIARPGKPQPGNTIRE

[17] = molecular target: MAGI1_1, Q96QZ7
Chain of MAGI1_1, Q96QZ7 (Q96QZ7 1-106): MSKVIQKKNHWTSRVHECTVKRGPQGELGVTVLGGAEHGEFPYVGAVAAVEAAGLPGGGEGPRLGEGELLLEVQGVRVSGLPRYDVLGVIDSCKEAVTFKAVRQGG

[18] = molecular target: T8, MPP2, Q14168
T8 sequence (Q14168 180-250, limits assumed, looked up): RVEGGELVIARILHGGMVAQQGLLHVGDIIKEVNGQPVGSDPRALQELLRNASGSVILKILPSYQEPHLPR

[19] = molecular target: T9, NHERF3_1, Q5T2W1
T9 sequence (Q5T2W1 4-100, limits assumed, looked up): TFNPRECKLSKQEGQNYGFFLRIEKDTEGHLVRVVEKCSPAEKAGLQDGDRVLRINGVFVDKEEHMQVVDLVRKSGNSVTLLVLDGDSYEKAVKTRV

[20] = molecular target: NOS1, P29475
Chain of NOS1, P29475 (P29475 9-101): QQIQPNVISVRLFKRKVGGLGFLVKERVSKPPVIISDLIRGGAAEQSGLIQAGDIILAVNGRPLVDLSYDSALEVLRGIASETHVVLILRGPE

[21] = molecular target: PDLIM1, O00151
Chain of PDLIM1, O00151 (O00151 1-87): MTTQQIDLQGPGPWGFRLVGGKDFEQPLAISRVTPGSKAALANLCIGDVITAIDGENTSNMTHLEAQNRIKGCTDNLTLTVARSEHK

[22] = molecular target: PICK1, Q9NRD5
Chain of PICK1, Q9NRD5 (Q9NRD5 17-115): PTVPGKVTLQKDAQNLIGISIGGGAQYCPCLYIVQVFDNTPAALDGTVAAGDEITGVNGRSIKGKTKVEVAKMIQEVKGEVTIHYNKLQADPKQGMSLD

[23] = molecular target: T10, RHPN1, Q8TCX5
T10 sequence (Q8TCX5 508-602, limits assumed, looked up): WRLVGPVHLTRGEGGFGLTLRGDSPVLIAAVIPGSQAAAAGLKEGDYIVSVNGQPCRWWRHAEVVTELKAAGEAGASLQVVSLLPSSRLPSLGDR

[24] = molecular target: SNX27, Q96L92
[25] = molecular target: T11, SYNJ2BP, P57105
T11 sequence (P57105 8-110, limits assumed, looked up): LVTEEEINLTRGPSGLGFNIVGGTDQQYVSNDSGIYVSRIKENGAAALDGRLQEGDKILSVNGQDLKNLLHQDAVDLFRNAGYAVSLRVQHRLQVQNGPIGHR

[26] = molecular target: T12, TIAM2, Q8IVF5
T12 sequence (Q8IVF5 885-986, limits assumed, looked up): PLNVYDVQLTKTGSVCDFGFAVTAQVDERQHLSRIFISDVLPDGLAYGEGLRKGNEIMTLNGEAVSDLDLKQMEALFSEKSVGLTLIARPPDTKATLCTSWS

[27] = plain residues with an end cap or a label only (N-terminal biotin on a linker: ado-ado)
[28] = modified: phospho on T at position -2 from the C-terminal residue

Measured: pKd

Chain of AHNAK1, Q09666 (Q09666 4-100): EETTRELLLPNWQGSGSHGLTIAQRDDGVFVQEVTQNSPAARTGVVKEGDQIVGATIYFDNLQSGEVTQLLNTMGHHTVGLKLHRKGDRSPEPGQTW

B1: CCDC134, Q9H6E4 (peptide)
chain: PRISRSQSEL
4.42: [19]; [27]
3.61: [8]; [27]
below the threshold: [1]; [27] | [2]; [27] | [3]; [27] | [4]; [27] | [5]; [27] | [6]; [27] | [7]; [27] | [9]; [27] | [10]; [27] | [11]; [27] | [12]; [27] | [13]; [27] | [14]; [27] | [15]; [27] | [16]; [27] | [17]; [27] | [18]; [27] | [20]; [27] | [21]; [27] | [23]; [27] | [24]; [27]
4.14: [22]; [27]
3.86: [26]; [27]
4.09: [25]; [27]

B2: NLGN2, Q8NFZ4 (peptide)
chain: LPHPHSTTRV
3.84: [25]; [27]
5.41: [24]; [27]
3.51: [16]; [27]
3.83: [23]; [27]
3.6: [13]; [27]
4.39: [15]; [27]
3.63: [8]; [27] | [20]; [27]
below the threshold: [1]; [27] | [2]; [27] | [3]; [27] | [4]; [27] | [6]; [27] | [7]; [27] | [9]; [27] | [10]; [27] | [11]; [27] | [12]; [27] | [14]; [27] | [17]; [27] | [18]; [27] | [21]; [27] | [26]; [27]
3.86: [5]; [27]
3.9: [19]; [27]
4.24: [22]; [27]

B3: HPV18-E6_-2P, P06463 (peptide)
chain: RLQRRRETQV
below the threshold: [1]; [28] | [2]; [28] | [3]; [28] | [4]; [28] | [6]; [28] | [7]; [28] | [8]; [28] | [9]; [28] | [10]; [28] | [11]; [28] | [12]; [28] | [13]; [28] | [14]; [28] | [15]; [28] | [16]; [28] | [17]; [28] | [18]; [28] | [19]; [28] | [21]; [28] | [22]; [28] | [23]; [28] | [25]; [28] | [26]; [28]
3.75: [20]; [28]
3.52: [5]; [28]
3.61: [24]; [28]

B4: LPXN, O60711 (peptide)
chain: QPCFNKLFPL
3.63: [3]; [27]
4.01: [19]; [27]
below the threshold: [1]; [27] | [2]; [27] | [4]; [27] | [5]; [27] | [6]; [27] | [7]; [27] | [8]; [27] | [9]; [27] | [10]; [27] | [11]; [27] | [12]; [27] | [13]; [27] | [14]; [27] | [15]; [27] | [16]; [27] | [18]; [27] | [21]; [27] | [22]; [27] | [23]; [27] | [25]; [27] | [26]; [27]
3.5: [20]; [27]
3.74: [17]; [27]
3.75: [24]; [27]
